{"source": "paper PMC10474274", "about": "“Structural insights into mechanisms of Argonaute protein-associated NADase activation in bacterial immunity”", "key": {"[1]": {"molecular_target": "Ago protein from Maribacter polysiphoniae (Maribacter polysiphoniae)", "assay": "cryo-EM structure; TIR-APAZ/Ago with gRNA and target ssDNA (1:1.5:2), tetramer of heterodimers, 2.95 Å"}, "[2]": {"molecular_target": "TIR-APAZ/Ago complex from Maribacter polysiphoniae (Maribacter polysiphoniae)", "assay": "cryo-EM structure; TIR-APAZ/Ago with gRNA and target ssDNA (1:1.5:2), tetramer of heterodimers, 2.95 Å"}, "[3]": {"molecular_target": "TIR-APAZ protein from Maribacter polysiphoniae (Maribacter polysiphoniae)", "assay": "cryo-EM structure; TIR-APAZ/Ago with gRNA and target ssDNA (1:1.5:2), tetramer of heterodimers, 2.95 Å"}, "[4]": {"molecular_target": "SIR2-APAZ;short prokaryotic Ago (SIR2-APAZ system) (Geobacter sulfurreducens;Geobacter …, UniProt Q74DF6;Q74DF5 1-587;1-473, |)", "sequence (chain, as listed by the source |, chain 1 of 2)": "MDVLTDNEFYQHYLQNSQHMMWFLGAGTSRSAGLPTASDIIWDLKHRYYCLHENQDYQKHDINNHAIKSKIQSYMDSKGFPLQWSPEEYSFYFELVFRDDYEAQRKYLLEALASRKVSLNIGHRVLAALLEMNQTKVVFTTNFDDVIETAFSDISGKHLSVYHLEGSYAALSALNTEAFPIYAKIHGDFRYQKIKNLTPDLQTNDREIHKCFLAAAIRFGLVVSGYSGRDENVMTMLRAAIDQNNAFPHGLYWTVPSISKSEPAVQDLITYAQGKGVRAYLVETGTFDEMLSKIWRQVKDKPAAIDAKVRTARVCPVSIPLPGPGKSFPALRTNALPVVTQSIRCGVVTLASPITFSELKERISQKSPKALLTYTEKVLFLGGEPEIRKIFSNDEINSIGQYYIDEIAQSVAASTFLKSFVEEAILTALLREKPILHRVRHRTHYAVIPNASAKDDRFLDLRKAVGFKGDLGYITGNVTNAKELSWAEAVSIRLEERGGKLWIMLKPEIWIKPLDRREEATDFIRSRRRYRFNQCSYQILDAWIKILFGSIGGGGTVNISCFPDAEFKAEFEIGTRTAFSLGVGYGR", "sequence (chain, as listed by the source |, chain 2 of 2)": "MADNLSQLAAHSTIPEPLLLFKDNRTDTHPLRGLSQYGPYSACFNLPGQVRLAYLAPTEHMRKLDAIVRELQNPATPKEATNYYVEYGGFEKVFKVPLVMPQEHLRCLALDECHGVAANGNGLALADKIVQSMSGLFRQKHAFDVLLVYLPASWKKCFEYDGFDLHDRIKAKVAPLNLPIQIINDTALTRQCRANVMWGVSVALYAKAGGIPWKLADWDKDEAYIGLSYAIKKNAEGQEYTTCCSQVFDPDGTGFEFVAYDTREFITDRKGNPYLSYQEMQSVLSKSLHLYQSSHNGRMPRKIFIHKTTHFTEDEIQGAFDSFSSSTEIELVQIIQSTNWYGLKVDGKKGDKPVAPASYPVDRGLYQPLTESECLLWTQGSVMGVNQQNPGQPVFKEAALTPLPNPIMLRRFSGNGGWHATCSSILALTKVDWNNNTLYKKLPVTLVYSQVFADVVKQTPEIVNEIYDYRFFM", "assay": "cryo-EM; metal ion at 5'-phosphate; 2 mM MgCl2; heterodimer; 3.0 A; cryo-EM: complex:gRNA:target DNA 1:1.5:2; TIR system 25 mM Tris-HCl pH 7.5, 150 mM NaCl, 2 mM DTT, 2 mM MgCl2; SIR2 system 25 mM HEPES pH 7.9, 150 mM NaCl, 2 mM DTT, 2 mM MgCl2 (gel-filtration buffers); native PAGE conditions not in material", "conditions": "protein: recombinant;recombinant; tags: His-SUMO (N-terminal); copies: 1;1; about 25 bp visible"}}}
{"molecule": "Ago protein from Maribacter polysiphoniae (natural protein)", "values": [{"measurement": "stoichiometry N", "setting": "[1]", "value": 2}]}
{"molecule": "TIR-APAZ/Ago complex from Maribacter polysiphoniae", "values": [{"measurement": "stoichiometry N", "setting": "[2]", "value": 4}]}
{"molecule": "TIR-APAZ protein from Maribacter polysiphoniae (natural protein)", "values": [{"measurement": "stoichiometry N", "setting": "[3]", "value": 4}]}
{"molecule": "gRNA + target ssDNA (SIR2-APAZ/Ago) (DNA:RNA, 5'-phosphate on gRNA) RNA: AUAAUGGUUUCUUAGACGUCGUUUUAGAGCUGUGUUGUUUCG DNA: CGAAACAACACAGCTCTAAAACGACGTCTAAGAAACCATTAT", "values": [{"measurement": "binding result", "setting": "[4]", "value": "binds"}]}
